Data as given in patent publication US20020094546A1.

Key:
[1] = molecular target: human beta PDGF receptor on human cells that carry both receptors (CCD1070 fibroblasts, MG-63 cells) (human) (UniProt P09619); test: two-site ELISA for alpha-beta PDGF receptor heterodimers: capture with anti-beta PDGF receptor mAb, detection with polyclonal anti-alpha PDGF receptor; MG-63 lysates after PDGF BB 10 ng/mL, 10 min
[2] = molecular target: human beta PDGF receptor on human cells that carry both receptors (CCD1070 fibroblasts, MG-63 cells) (human) (UniProt P09619); test: two-site ELISA for alpha-beta PDGF receptor heterodimers: capture with anti-beta PDGF receptor mAb, detection with polyclonal anti-alpha PDGF receptor; MG-63 lysates after PDGF DD 100 ng/mL, 10 min
[3] = molecular target: beta PDGF receptor on HR5βR cells expressing only the beta receptor (UniProt P09619); test: cell-based or functional assay
beta PDGF receptor on HR5βR cells expressing only the beta receptor, sequence (P09619 33-1106 limits assumed): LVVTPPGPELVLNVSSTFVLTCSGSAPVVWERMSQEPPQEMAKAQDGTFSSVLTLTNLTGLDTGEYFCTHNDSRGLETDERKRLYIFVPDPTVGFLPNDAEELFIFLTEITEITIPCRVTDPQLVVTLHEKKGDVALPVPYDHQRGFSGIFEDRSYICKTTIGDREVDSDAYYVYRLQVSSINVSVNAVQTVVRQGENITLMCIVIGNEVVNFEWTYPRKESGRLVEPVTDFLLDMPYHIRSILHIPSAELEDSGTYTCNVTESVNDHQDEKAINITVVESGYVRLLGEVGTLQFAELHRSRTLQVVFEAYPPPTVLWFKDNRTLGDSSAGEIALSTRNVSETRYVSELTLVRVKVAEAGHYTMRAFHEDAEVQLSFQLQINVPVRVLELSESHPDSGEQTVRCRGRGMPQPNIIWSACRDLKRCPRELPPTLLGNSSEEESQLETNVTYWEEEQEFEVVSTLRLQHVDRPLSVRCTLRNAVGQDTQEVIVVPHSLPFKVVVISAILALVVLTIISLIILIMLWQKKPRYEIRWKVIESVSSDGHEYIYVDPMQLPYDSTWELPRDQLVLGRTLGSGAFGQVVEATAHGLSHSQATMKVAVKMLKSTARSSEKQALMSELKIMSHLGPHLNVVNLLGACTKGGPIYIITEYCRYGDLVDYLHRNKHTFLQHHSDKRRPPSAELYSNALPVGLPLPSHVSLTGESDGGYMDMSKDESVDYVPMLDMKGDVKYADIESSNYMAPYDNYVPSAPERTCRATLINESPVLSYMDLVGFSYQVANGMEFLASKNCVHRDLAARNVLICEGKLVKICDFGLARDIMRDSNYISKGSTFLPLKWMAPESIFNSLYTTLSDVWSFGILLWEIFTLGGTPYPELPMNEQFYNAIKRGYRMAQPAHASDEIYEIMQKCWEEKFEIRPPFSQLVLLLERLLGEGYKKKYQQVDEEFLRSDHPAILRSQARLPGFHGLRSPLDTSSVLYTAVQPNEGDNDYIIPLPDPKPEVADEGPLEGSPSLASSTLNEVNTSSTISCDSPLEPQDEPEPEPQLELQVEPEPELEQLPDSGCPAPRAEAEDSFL

[4] = molecular target: alpha PDGF receptor on 32D cells expressing only the alpha receptor (UniProt P16234); test: competition of unlabeled PDGF DD with ^125I-PDGF AA on 32D alpha receptor bearing cells
alpha PDGF receptor on 32D cells expressing only the alpha receptor, sequence (P16234 24-1089): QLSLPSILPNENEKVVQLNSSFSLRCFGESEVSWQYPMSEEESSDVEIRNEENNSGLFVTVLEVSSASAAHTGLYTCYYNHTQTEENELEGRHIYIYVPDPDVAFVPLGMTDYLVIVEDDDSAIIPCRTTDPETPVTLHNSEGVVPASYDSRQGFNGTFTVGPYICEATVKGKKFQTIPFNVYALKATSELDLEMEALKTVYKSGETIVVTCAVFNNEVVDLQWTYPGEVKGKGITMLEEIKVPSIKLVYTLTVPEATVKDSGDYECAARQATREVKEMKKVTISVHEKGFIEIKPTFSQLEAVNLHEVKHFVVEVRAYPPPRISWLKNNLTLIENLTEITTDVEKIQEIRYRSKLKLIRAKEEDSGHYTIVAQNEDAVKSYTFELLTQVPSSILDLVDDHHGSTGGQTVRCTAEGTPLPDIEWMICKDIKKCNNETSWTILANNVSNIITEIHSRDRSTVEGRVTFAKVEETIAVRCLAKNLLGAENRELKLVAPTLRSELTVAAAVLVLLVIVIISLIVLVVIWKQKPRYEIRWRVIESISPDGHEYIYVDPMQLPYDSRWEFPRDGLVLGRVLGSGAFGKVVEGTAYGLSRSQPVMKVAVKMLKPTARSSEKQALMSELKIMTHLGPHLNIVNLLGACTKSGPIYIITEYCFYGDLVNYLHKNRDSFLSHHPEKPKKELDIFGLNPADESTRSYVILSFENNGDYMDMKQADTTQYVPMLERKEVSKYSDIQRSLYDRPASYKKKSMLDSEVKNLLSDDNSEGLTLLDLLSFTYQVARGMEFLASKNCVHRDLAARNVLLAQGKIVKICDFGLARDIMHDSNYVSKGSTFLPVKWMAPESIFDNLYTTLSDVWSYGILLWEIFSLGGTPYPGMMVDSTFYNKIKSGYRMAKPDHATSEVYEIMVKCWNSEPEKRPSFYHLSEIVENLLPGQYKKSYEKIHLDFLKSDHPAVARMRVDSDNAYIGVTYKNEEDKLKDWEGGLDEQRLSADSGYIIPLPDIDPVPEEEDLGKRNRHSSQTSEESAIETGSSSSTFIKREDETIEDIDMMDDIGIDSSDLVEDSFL

[5] = molecular target: PDGF AA (human) (UniProt P04085); test: cell-based or functional assay
[6] = molecular target: PDGF DD p35 (p35 form of the 30664188 gene product, dimeric C-terminal fragment) (human); test: cell-based or functional assay

human beta PDGF receptor on human cells that carry both receptors (CCD1070 fibroblasts, MG-63 cells) (human), sequence (P09619 33-1106): as the sequence (P09619 33-1106 limits assumed) above

Which Increase mODmin^-1 (650) (mODmin^-1 (650)) [1] does the source give for “human alpha PDGF receptor on human cells that carry both receptors (CCD1070 fibroblasts, MG-63 cells) (from UniProt P16234 24-1089)” here?
The Increase mODmin^-1 (650) (mODmin^-1 (650)) was 2.3.

And the Increase mODmin^-1 (650) (mODmin^-1 (650)) [2]?
Its Increase mODmin^-1 (650) (mODmin^-1 (650)) is 12.5.

For “PDGF DD p35 (p35 form of the 30664188 gene product, dimeric C-terminal fragment) (ligand)”, which lowest concentration at which beta PDGF receptor phosphorylation was detected, HR5 cells [3] is on record?
The lowest concentration at which beta PDGF receptor phosphorylation was detected, HR5 cells was 10 ng/mL.

What about the highest competitor concentration tested, no competition seen [4] of the same substance?
The highest competitor concentration tested, no competition seen was > 250 nM.

With “soluble beta PDGF receptor-IgFc fusion (R&D Systems) (from UniProt P09619 33-530)” as the substance, how does the BrdU incorporation OD-blank, CCD1070 cells, AA + betaR Fc (AA alone 0.2705; + MOPC21 0.227) [5] read?
Its BrdU incorporation OD-blank, CCD1070 cells, AA + betaR Fc (AA alone 0.2705; + MOPC21 0.227) is 0.248 OD-blank.

And the BrdU incorporation OD-blank, NIH/3T3 cells, AA + betaR Fc (AA alone 0.931; + MOPC21 0.992) [5]?
Its BrdU incorporation OD-blank, NIH/3T3 cells, AA + betaR Fc (AA alone 0.931; + MOPC21 0.992) is 0.942 OD-blank.

What about the BrdU incorporation OD-blank, CCD1070 cells, 3066 + betaR Fc (3066 alone 0.501; + MOPC21 0.456; starve 0.0303) [6] of the same substance?
The BrdU incorporation OD-blank, CCD1070 cells, 3066 + betaR Fc (3066 alone 0.501; + MOPC21 0.456; starve 0.0303) was 0.324 OD-blank.

And the BrdU incorporation OD-blank, NIH/3T3 cells, 3066 + betaR Fc (3066 alone 0.902; + MOPC21 0.892; starve 0.0055) [6]?
Its BrdU incorporation OD-blank, NIH/3T3 cells, 3066 + betaR Fc (3066 alone 0.902; + MOPC21 0.892; starve 0.0055) is 0.0365 OD-blank.
